Data from US8470772B2, “Leptin agonist and methods of use” (Temple University—Of The Commonwealth System of Higher …, priority 2008, dated 2013).
Non-standard residues stand in square brackets, D forms with d. No end group written: not given here. *: point of attachment. βGlc = OC[C@H]1O[C@@H](*)[C@H](O)[C@@H](O)[C@@H]1O; Tyr(3,5-I2) = N[C@@H](Cc1cc(I)c(O)c(I)c1)C(=O)O; Dap = NC[C@H](N)C(=O)O

Target: T1, ObR extracellular domain (Homo sapiens, UniProt P48357)
T1 construct: human IgG Fc-conjugated ObR extracellular domain (R&D Systems); purchased R&D Systems
T1 sequence (P48357 22-839 limits assumed): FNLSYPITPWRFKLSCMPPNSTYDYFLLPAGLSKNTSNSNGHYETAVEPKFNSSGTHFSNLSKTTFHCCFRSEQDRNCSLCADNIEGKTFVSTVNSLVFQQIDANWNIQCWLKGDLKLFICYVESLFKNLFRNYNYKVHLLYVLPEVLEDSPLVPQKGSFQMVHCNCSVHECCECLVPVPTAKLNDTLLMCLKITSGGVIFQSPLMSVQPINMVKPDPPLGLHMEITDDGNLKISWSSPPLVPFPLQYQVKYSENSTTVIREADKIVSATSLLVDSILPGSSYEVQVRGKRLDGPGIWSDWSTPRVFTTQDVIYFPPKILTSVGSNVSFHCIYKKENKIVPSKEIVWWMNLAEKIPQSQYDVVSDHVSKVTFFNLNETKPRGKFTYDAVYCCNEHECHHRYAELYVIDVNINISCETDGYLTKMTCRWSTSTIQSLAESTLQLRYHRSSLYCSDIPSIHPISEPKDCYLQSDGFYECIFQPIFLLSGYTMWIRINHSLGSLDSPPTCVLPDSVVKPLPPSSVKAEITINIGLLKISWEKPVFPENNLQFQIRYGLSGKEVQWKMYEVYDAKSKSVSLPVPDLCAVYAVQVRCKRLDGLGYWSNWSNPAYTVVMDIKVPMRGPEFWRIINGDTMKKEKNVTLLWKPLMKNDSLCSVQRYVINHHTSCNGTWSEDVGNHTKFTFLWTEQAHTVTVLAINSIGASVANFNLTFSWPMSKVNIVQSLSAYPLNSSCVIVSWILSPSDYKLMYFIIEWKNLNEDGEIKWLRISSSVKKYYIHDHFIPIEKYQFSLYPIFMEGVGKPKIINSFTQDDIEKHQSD
Assay: Dot-blot and ELISA-type solid-phase binding assay
Conditions: dot-blot, Western-blot or ELISA; 10 and 20 μg peptide load in ELISA
Protocol: For dot-blot and ELISA assays, the leptin fragments were dissolved in electroblot transfer buffer (25 mM Tris and […] buffer containing 20% methanol) and were applied to either a nitrocellulose membrane or dried upon ELISA plates (Otvos, L., Jr., and Szendrei, G. I. (1996) Enzyme-linked immunosorbent assay of peptides. In: Neuropeptide Protocols (G. B. Irvine and C. H. Williams, eds.). Humana Press, Totowa, N.J., pp. 269-275). The solid surfaces were blocked with 5% BSA in a PBS-0.5% Tween 20 buffer (PBST) for 3 hours at room temperature and were subsequently incubated with 10 μg/mL solution of human IgG Fc-conjugated ObR extracellular domain (R&D Systems) dissolved in Tris-buffered saline-0.1% Tween 20 buffer (TBST) containing 1% bovine serum albumin (BSA) for 1 hour. A monoclonal goat antibody (Santa Cruz Biotechnology), specific for the N-terminus of human ObR, was added to the assay mixture, followed by addition of a horseradish peroxidase(HRP)-conjugated anti-goat IgG donkey antibody for the dot-blot assay, and HRP-conjugated anti-goat Fc mouse antibody for ELISA assay (used at a 1:15,000 dilution in PBST and 1% BSA). Between reagents, the solid surfaces were washed extensively with PBST. After washing with PBST, the membrane was treated with a chemiluminescence luminol oxidizer (NEN) for 1 min. The resultant chemiluminescence was exposed to a X-Omat blue XB-1 film (Kodak) for 10 seconds, and the exposed film was developed. The ELISA was developed using an HRP ELISA kit including tetramethylbenzidine as a substrate and sulfuric acid as a stop solution. Optical absorbance values were read at 490 nm using a microplate reader.

Tyr(I2)-Serβ(Glc)-Thr-Glu-Va1-Va1-Ala-Leu-Ser-Arg-Leu-Dap(Ac) ([Tyr(3,5-I2)]S(βGlc)TEVVALSRL[Dap](Ac)-NH2) [E1Free]
binding to the extracellular domain of ObR: bound
